# Experimental data reported in patent publication US10308606B2, “PSMA-targeted NIR dyes and their uses” (On Target Laboratories, LLC, priority 2016, dated 2019).
# Legend:
# [1] = tested on: 22Rv1 human prostate tumor xenograft; test: Time dependent whole body imaging; type: in vivo, mouse; details: 10 nmol, FIG. 6
# Procedure: FIGS. 6A-6F: Overlay of whole body or half body fluorescence image over white light images after adjusting the threshold. 22Rv1 human prostate tumor xenograft bearing mouse was injected with 10 nmol of 1: OTL78 and imaged with IVIS imager (ex=745 nm, em=ICG, exposure time=1 s) at different time intervals.
# Settings for imaging:—lamp level: medium; excitation: 745 nm; emission: ICG(830 nm); epi illumination; binning: 4 (M), FOV=12.5; f-stop=2; acquisition time=1 s. For time dependent studies, animals were imaged under anesthesia using isoflurane. Whole body imaging (intact tumor) experiments was then performed using a Caliper IVIS Lumina II Imaging Station with Living Image 4.0 software (PerkinElmer Inc, MA).
# PSMA = target: T1, PSMA (Homo sapiens, UniProt Q04609); test: In vitro binding: relative binding affinity versus DUPA-FITC on PSMA-positive 22Rv1 cells; details: 1 h at 37° C., 100 nM DUPA-FITC, FIG. 2, read-out: dissociation constant (KD)
# T1 construct: PSMA-positive 22Rv1 human prostate cancer cells; endogenous in cells; host or cells: 22Rv1 human prostate cancer cells
# Procedure: FIG. 2 illustrates the relative binding affinity of 1: OTL78 with respect to DUPA-FITC (14). PSMA-positive 22Rv1 human prostate cancer cells were incubated for 1 h at 37° C. in the presence of 100 nM DUPA-FITC with increasing concentrations of 1. Media was then removed, washed with fresh media three times, and replaced with PBS. Cell bound fluorescence was assayed as using flow cytometry.
# General Methods: 22Rv1 cells (a human prostate cancer cells) were grown as a monolayer using RPMI medium (Gibco, NY) 10% heat-inactivated fetal bovine serum (Atlanta Biological, GA) and 1% penicillin streptomycin (Gibco, NY) in a 5% carbon dioxide: 95% air-humidified atmosphere at 37° C. for at least six passages before they were used for the assays.
# In vitro binding and specificity: 22Rv1 cells were seeded into a T75 flask and allowed to form a monolayer over 24 h. After trypsin digestion, release cells were transferred into centrifuge tubes (1×10^6 cells/tube) and centrifuged. […] After rinsing with fresh medium (2×1.0 mL) and PBS (1×1.0 mL), cells were resuspended in PBS (1.0 mL) and cell bound fluorescence was analyzed (100,000 cells/sample) using a fluorometer (Cary, Agilent). The relative binding affinities were calculated using a plot of % cell bound fluorescence versus the log concentration of the test article using GraphPad Prism 4.
# T1 sequence (Q04609 whole entry): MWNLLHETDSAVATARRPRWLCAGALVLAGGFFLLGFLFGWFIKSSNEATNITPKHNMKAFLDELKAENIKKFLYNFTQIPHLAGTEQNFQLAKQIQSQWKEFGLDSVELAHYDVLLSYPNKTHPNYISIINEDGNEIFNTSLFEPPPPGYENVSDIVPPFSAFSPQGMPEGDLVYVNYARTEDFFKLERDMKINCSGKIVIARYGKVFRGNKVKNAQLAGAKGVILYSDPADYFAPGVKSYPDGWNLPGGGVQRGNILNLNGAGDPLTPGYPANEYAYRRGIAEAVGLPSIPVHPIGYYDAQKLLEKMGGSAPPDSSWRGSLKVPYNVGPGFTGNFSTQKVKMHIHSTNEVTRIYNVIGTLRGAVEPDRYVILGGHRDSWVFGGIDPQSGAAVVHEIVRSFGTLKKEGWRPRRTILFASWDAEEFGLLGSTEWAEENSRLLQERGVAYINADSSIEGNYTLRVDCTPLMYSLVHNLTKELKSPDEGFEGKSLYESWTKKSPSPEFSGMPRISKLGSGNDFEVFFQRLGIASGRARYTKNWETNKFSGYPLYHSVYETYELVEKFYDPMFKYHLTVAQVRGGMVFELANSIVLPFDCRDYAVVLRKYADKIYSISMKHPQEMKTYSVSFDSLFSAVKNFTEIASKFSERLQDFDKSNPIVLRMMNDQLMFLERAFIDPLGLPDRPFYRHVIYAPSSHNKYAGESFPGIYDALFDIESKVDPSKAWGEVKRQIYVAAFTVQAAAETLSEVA
Molecule,time remained in the tumor [1],time to saturation in PSMA-positive tumors [1] [h],Kd (PSMA) [nM]
"CC1(C)C(/C=C/C2=C(Oc3ccc(C[C@H](NC(=O)[C@H](Cc4ccccc4)NC(=O)CCOCCOCCNC(=O)CC[C@H](NC(=O)N[C@@H](CCC(=O)O)C(=O)O)C(=O)O)C(=O)O)cc3)C(=C/C=C3/N(CCCCS(=O)(=O)O)c4ccc(S(=O)(=O)O)cc4C3(C)C)/CCC2)=[N+](CCCCS(=O)(=O)[O-])c2ccc(S(=O)(=O)O)cc21 [1: OTL78, DUPA_PEG2_Phe_Tyr-50456]",over 24 h,≤ 2,
DUPA_PEG2—Phe_Tyr-S0456 [compound 5],,,1
